This is an account of results in US20210122813A1 (Kyowa Kirin, published 2021).

Positions count from the first letter of the chain named. Like-named read-outs stand apart in the source and are kept apart here.

The target of test [1] is human BMP10 mature dimer (manufactured by R & D Systems, Inc., Cat #2926-BP) (human) (UniProt O95393). The test can be described thus: SPR (Biacore T100), antibody captured by anti-mouse IgG, human BMP10 mature dimer as analyte.
Test [2] has as its target T1, human BMP10 mature dimer (manufactured by R & D Systems, Inc., Cat #2926-BP) (human, UniProt O95393 317-424).
T1 construct: Bought product; also called human mature BMP10; mature BMP10
T1 sequence: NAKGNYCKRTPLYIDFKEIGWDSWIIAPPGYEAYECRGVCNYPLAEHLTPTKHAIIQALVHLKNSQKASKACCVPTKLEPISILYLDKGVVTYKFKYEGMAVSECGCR
Description: SPR (Biacore T100), antibody captured by anti-human IgG, human BMP10 mature dimer as analyte. Here is the method: Further, subsequently, human mature BMP10 prepared at 5 concentrations by 3-fold serial dilution from 300 ng/mL was added thereto at a flow rate of 30 μL/min, and a binding reaction was monitored for 1 minute and a dissociation reaction was monitored for 30 minutes. The obtained sensorgram was analyzed using Bia Evaluation Software (manufactured by GE Healthcare Bio-Sciences Corporation), and the kinetic constant of each antibody was calculated.

The target in test [3] is T1, human BMP10 mature dimer (manufactured …). The description is as above. Here is the method:
(§1) The binding activity of the anti-BMP10 antibody was measured as follows. An anti-human IgG antibody was immobilized on a CMS sensor chip (manufactured by GE Healthcare Bio-Sciences, Inc., BR100530) using Human Antibody Capture Kit (manufactured by GE Healthcare Bio-Sciences Corporation, Cat #BR-1008-39) according to the attached protocol. To a flow cell in which the anti-human IgG antibody was immobilized, the antibody prepared at 5 μg/mL was added at a flow rate of 10 μL/min for 10 seconds.
(§2) Subsequently, human mature BMP10 prepared at 5 concentrations by 3-fold serial dilution from the 100 ng/mL was added thereto at a flow rate of 30 μL/min, and a binding reaction was monitored for 1 minute and a dissociation reaction was monitored for 10 minutes. The obtained sensorgram was analyzed using Bia Evaluation Software (manufactured by GE Healthcare Bio-Sciences Corporation), and the kinetic constant of each antibody was calculated. The calculated association rate constant (ka), dissociation rate constant (kd), and dissociation constant [kd/ka=KD] of each antibody are shown in Table 4.
The source holds these as a separate data set.

Test [4] has the same target. The test can be described thus: SPR (Biacore T100), antibody captured by anti-human IgG, human BMP10 mature dimer as analyte; 100 ng/mL top concentration, 10 minutes dissociation (Example 13, Table 4). Here is the method:
as §1, §2

On to “MAB2926 (clone No. 462732, R & D Systems, Inc.) (antibody)”, for which the dissociation constant Kd in test [1] came out at 33.1 pM.

B1: 18C1 chimeric antibody (antibody, V domains shown)
VH: QVQLKETGPDLVQLTQTLSITCTVSGFSLTTYNVHWVRQPPGKGLEWMGTMWNGGGIDYNSAFKSRLSISRDTSKSQVFLKMNSLQTDDTAKYFCARLGYYVDYWGHGIMVTVSS
VL: QFVLIQSNSMSTSLGSTVKLSCKRSTGNIGSSYVYWYQQHEGRSPTTMIYDGDKRPDGVPDRFSGSIDSSSNSAFLTINNVQIEDEAIYFCQSFSSGIKFIFGGGTKLTVL
notes: also called ch18C1 antibody; ch18C1
In the case of B1, the dissociation constant (Kd) in test [2] and in test [3] was 2.62 pM each time. Moreover, the on-rate constant (kon) in test [4] came out at 3.88e+07 M⁻¹ s⁻¹.

B2: 12H3 chimeric antibody (antibody, V domains shown)
VH: B1 VH with T30S, T50A, D58N, L98F, Y101G, V102F, H107Q, I109V
VL: ETVMTQSPTSMSTSIGERVTLNCKASQSVGINVDWYQRTPGQSPKLLIHGASNRHTGVPDRFTGSGFGRDFTLTISNVEAEDLTIYYCLQYGSIPLTFGAGTKLELI
notes: also called ch12H3 antibody
In turn, B2 came in with a Kd in test [2] of 11.8 pM.

B3: 11H10 chimeric antibody (antibody, V domains shown)
VH: B1 VH with T50A, I57T, G99A, Y100E, Y101G, V102F, H107Q, I109V
VL: DTVMTQSPASMSTSVGERVTVNCKASQSVGTVVAWFQQKPGQSPKRLIYLATNRHTGVPDRFTGSGFGRDFTLTISNVEAEDLAVYYCLQYGSIPFTFGSGTKLEIK
notes: also called ch11H10 antibody
Turning to B3, the Kd in test [2] amounted to 6.26 pM. This Kd is about 1.9-fold lower than that of the molecule before.

B4: VLres16HVmut07 (antibody, V domains shown)
VH: QVQLQESGPDLVQPSQTLDITCTVSGFSLTTYNVHWVRQPPGKGLEWMGTMWNGGGIDYNSAFKDRLAISRDTSKNQVSLKMDSLQTDDTAKYFCARLGYYVDYWGQGILVTVSS
VL: B1 VL with V3A, N8D, L14A, N80D, I88V
notes: Humanized 18C1 antibody; also called hz18C1 antibody; anti-BMP10 humanized antibody
B4: the dissociation constant Kd in test [3] stood at 3.19 pM.

B5: VLres16HVmut10 (antibody, V domains shown)
VH: B4 VH with Q77E, S79F, K92V
VL: B1 VL with V3A, N8D, L14A, N80D, I88V
notes: as for B4
Consider B5, for which, in test [3], the Kd was determined as 2.88 pM.

B6: VLres16VHres16 (antibody, V domains shown)
VH: B1 VH with L14P, S19D, S68A, Q77E, N83D, H107Q
VL: B1 VL with V3A, N8D, L14A, N80D, I88V
notes: Humanized 18C1 antibody; also called VLres16VHres16 antibody; hz18C1 antibody
The molecule B6 came in with a Kd in test [3] of 3.69 pM.

B7: VLres14VHres16 (antibody, V domains shown)
VH: B1 VH with L14P, S19D, S68A, Q77E, N83D, H107Q
VL: B1 VL with N8D, L14A, N80D, I88V
notes: Humanized 18C1 antibody; also called VLres14VHres16 antibody; hz18C1 antibody
In turn, B7 registered a dissociation constant (Kd) in test [3] of 3.3 pM.
